Source: patent publication US20210388084A1 (JJP BIOLOGICS SP Z O O, published 2021)
Substitutions are numbered along the chain they refer to.

T1: chimeric human/cynomolgus monkey CD89-II (human/cynomolgus monkey chimera, UniProt P24071 22-287)
T1 construct: also called ΔIle47-Ile71 human EC1-CD89; II (47-71)
T1 chain: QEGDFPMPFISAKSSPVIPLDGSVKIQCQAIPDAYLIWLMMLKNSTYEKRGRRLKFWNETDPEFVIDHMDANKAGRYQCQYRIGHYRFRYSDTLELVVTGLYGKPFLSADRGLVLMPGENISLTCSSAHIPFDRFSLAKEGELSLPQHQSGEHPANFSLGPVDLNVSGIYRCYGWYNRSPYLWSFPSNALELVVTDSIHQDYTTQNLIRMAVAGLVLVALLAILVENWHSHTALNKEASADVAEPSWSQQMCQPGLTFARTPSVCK

T2: chimeric bovine EC1-Fcγ2R/human EC2-CD89 (bovine/human chimera)
T2 chain: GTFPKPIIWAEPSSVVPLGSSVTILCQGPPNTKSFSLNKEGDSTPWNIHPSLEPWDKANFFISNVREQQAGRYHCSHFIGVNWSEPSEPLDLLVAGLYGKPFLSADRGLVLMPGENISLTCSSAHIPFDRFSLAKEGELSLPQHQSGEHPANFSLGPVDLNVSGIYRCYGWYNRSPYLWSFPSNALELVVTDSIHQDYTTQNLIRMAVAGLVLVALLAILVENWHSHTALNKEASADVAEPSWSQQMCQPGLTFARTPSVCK

T3: chimeric human/cynomolgus monkey CD89-IV (human/cynomolgus monkey chimera, UniProt P24071 22-287)
T3 construct: also called ΔArg97-Gly121 human EC1-CD89
T3 chain: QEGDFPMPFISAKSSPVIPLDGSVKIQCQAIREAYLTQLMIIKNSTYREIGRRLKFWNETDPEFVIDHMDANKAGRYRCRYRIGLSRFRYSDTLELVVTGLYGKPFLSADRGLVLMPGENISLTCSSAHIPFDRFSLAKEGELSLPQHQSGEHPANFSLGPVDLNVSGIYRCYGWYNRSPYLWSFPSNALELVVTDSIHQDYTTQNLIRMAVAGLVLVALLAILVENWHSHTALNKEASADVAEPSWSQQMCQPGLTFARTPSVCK

T4: chimeric human/cynomolgus monkey CD89-I (human/cynomolgus monkey chimera, UniProt P24071 22-287)
T4 construct: also called ΔGln22-Lys46 human EC1-CD89; I (22-46)
T4 chain: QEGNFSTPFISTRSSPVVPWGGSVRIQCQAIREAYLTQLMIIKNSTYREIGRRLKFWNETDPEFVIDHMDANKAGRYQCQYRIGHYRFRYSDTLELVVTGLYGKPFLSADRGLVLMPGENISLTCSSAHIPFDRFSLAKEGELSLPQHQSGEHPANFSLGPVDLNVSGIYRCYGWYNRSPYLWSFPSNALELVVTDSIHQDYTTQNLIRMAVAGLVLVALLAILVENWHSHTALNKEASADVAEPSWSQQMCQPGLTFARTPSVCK

T5: chimeric human/cynomolgus monkey CD89-III (human/cynomolgus monkey chimera, UniProt P24071 22-287)
T5 construct: also called ΔGly72-Gly96 human EC1-CD89; III (72-96)
T5 chain: T3 chain with G51D, R52E, R53K, K55G, E59D, D61T, R78Q, R80Q, L85H, S86Y

T6: chimeric human/cynomolgus monkey CD89-hotspots (human/cynomolgus monkey chimera, UniProt P24071 22-287)
T6 construct: also called ΔThr58, Gln59; ΔArg73, Arg74, Lys76
T6 chain: T3 chain with T37I, Q38W, R52E, R53K, K55G, R78Q, R80Q

B1: mouse anti-human CD89-specific antibody 30C7 (antibody, mouse IgG1, V domains shown)
VH: QVQLQQSGPELVRPGVSVKISCKGSGYTFTDYVMHWVKQSHAKSLEWIGVISTYSGNTNYNQKFKGKATMTVDKSSSTAYMELARLTSEDSAIYYCARESDGYYFDYWGQGTTLTVSS
VL: DIVMSQSPSSLAVSAGEKVTMSCKSSQSLLNSRTRKNYLAWYQQKPGQSPKLLIYWASTRESGVPDRFTGSGSGTDFTLTISSVQAEDLAVYYCKQSYNLMYTFGGGTKLEIK
B2: mouse anti-human CD89-specific antibody 16D6 (antibody, mouse IgG1, V domains shown)
VH: QVQLQQSGAELMKPGASVKISCKATGYTFSTYWIEWVKQRPGHGLEWIGEILPGSGSANYNEKFKGKATFTADTSSNTAYMQLSSLTFEDSAVYYCAKGFGSPYYYAMDYWGQGTSVTVSS
VL: EIVLTQSPALMAASPGEKVTITCSVSSSISSSNLHWYQQKSETSPKPWIYGTSKLASGVPVRFSGSGSGTSYSLTISNMEAEDAATYYCQQWSSFPLTFGGGTKLEIK
notes: also called 16D16

What was measured:
[1] = biological target: T7, membrane-bound full-length human CD89 (human, UniProt P24071 22-287); assay: FACS, HEK293F-huCD89, 24 h 37C no NaN3, Ab 10 ug/mL then IgA; competitor non-aggr serum IgA
T7 construct: on stably or transiently transfected HEK293F cells; also called FcalphaRI; huCD89
Description: (§1) After extensive washing in PBS/BSA/NaN₃, 1:200 diluted PE-conjugated streptavidin (Jackson ImmunoResearch) was added, and incubated for 30 minutes at 4° C. After extensive washing in PBS/BSA/NaN₃, cells were fixed in 2% formaldehyde in PBS/BSA/NaN₃ for 30 minutes at 4° C.

[2] = biological target: T7, membrane-bound full-length human CD89; assay: FACS, HEK293F-huCD89, half-maximum binding
Description: Then, 10 μL/tube (ie, 0.1×10⁶ cells) of these cells were incubated with or without 100 μL titrated (in PBS/BSA/NaN₃) purified chimeric mouse/human anti-human CD89 antibody/tube for 30 minutes at 4° C. […] After extensive washing in PBS/BSA/NaN₃, cells were subsequently incubated with 1:200 diluted PE-conjugated goat anti-human IgG Fey-specific antibodies (Jackson ImmunoResearch) for 30 minutes at 4° C. After extensive washing in PBS/BSA/NaN₃, cells were fixed in 2% formaldehyde in PBS/BSA/NaN₃ for 30 minutes at 4° C.

[3] = biological target: T7, membrane-bound full-length human CD89; assay: FACS, HEK293F-huCD89, 4C +NaN3, Ab 10 ug/mL then IgA; competitor non-aggr serum IgA
Description: Then, 10 μL/tube (ie, 0.1×10⁶ cells) of these cells were incubated with or without 50 μL purified mouse anti-human CD89 antibody at 20 μg/mL (in PBS/BSA/NaN₃) for 30 minutes at 4° C. […] After extensive washing in PBS/BSA/NaN₃, 1:200 diluted PE-conjugated streptavidin (Jackson ImmunoResearch) was added, and incubated for 30 minutes at 4° C. After extensive washing in PBS/BSA/NaN₃, cells were fixed in 2% formaldehyde in PBS/BSA/NaN₃ for 30 minutes at 4° C.

[4] = biological target: T7, membrane-bound full-length human CD89; assay: FACS, HEK293F-huCD89, unlabeled Ab 10 ug/mL first; competitor A3-PE
Description: (§2) Then, 10 μL/tube (ie, 0.1×10⁶ cells) of these cells were incubated with or without 100 μL purified mouse anti-human CD89 antibody at 10 μg/mL (in PBS/BSA/NaN₃) for 30 minutes at 4° C. […] After extensive washing in PBS/BSA/NaN₃, cells were fixed in 2% formaldehyde in PBS/BSA/NaN₃ for 30 minutes at 4° C.

[5] = biological target: T7, membrane-bound full-length human CD89; assay: FACS, HEK293F-huCD89, unlabeled Ab 10 ug/mL first; competitor MIP8a-PE
Description: as §2

[6] = biological target: T1, chimeric human/cynomolgus monkey CD89-II; assay: FACS, transiently transfected HEK293F; - = no binding
Description: (§3) After 48 hours, the binding of CD89/IgA blocking mouse anti-human CD89 antibodies to aforementioned chimeric human CD89/cynomolgus monkey CD89 constructs on transfected cells was analyzed by FACS analysis. To this end, transient transfected HEK293F cells were put at 10×10⁶ cells/mL in ice-chilled phosphate-buffered saline containing 0.1% BSA (Sigma)/0.05% NaN₃ (PBS/BSA/NaN₃) supplemented with 50 μg/mL human IgGs (blocking Fcγ receptors; Sigma) for 10 minutes at 4° C. Then, 10 μL/tube (ie, 0.1×10⁶ cells) of these cells were incubated with or without 100 μL purified mouse anti-human CD89 antibody at 10 μg/mL (in PBS/BSA/NaN₃) for 30 minutes at 4° C. […] After extensive washing in PBS/BSA/NaN₃, cells were subsequently incubated with 1:200 diluted PE-conjugated goat anti-mouse IgG Fey-specific antibodies (Jackson ImmunoResearch) for 30 minutes at 4° C. After extensive washing in PBS/BSA/NaN₃, cells were fixed in 2% formaldehyde in PBS/BSA/NaN₃ for 30 minutes at 4° C.

[7] = biological target: T8, recombinant C-terminal polyhistidine-tagged human (extracellular) CD89 (human, UniProt P24071 22-227); assay: ELISA, coated rhuCD89, half-maximum binding
T8 construct: extracellular domain; bought (Sino Biological); also called rhuCD89
Description: After extensive washing with PBS/0.05% Tween 20, plates were blocked with PBS/0.05% Tween 20/1% BSA (Roche) for 1 hour at RT. Subsequently, plates were incubated with 50 μL titrated (in block buffer) purified mouse anti-human CD89 antibody/well for 1 hour at RT. […] After extensive washing in PBS/0.05% Tween 20, binding of antibodies on rhuCD89 was determined with 1:5,000 diluted horseradish peroxidase (HRP)-conjugated goat anti-mouse IgG Fey-specific antibodies (Jackson ImmunoResearch) for 1 hour at RT, followed by a ready-to-use solution of TMB substrate (Invitrogen) for colorimetric detection.
After extensive washing with PBS/0.05% Tween 20, plates were blocked with PBS/0.05% Tween 20/1% BSA (Roche) for 1 hour at RT. Subsequently, plates were incubated with and without 50 μL titrated (in block buffer) purified chimeric mouse/human anti-human CD89 antibody/well for 1 hour at RT. After extensive washing in PBS/0.05% Tween 20, binding of antibodies on rhuCD89 was determined with 1:5,000 diluted horseradish peroxidase (HRP)-conjugated goat anti-human IgG Fey-specific antibodies (Jackson ImmunoResearch) for 1 hour at RT, followed by a ready-to-use solution of TMB substrate (Invitrogen) for colorimetric detection.

[8] = biological target: T2, chimeric bovine EC1-Fcγ2R/human EC2-CD89; assay: FACS, transiently transfected HEK293F
Description: After 48 hours and/or 72 hours, the binding of CD89/IgA blocking mouse anti-human CD89 antibodies to aforementioned chimeric human/bovine receptors on transfected cells was analyzed by FACS analysis. To this end, transient transfected HEK293F cells were put at 10×10⁶ cells/mL in ice-chilled phosphate-buffered saline containing 0.1% BSA (Sigma)/0.05% NaN₃ (PBS/BSA/NaN₃) supplemented with 50 μg/mL human IgGs (blocking Fcγ receptors; Sigma) for 10 minutes at 4° C. Then, 10 μL/tube (ie, 0.1×10⁶ cells) of these cells were incubated with or without 100 μL purified mouse anti-human CD89 antibody at 10 μg/mL (in PBS/BSA/NaN₃) for 30 minutes at 4° C. […] After extensive washing in PBS/BSA/NaN₃, cells were subsequently incubated with 1:200 diluted PE-conjugated goat anti-mouse IgG Fey-specific antibodies (Jackson ImmunoResearch) for 30 minutes at 4° C. After extensive washing in PBS/BSA/NaN₃, cells were fixed in 2% formaldehyde in PBS/BSA/NaN₃ for 30 minutes at 4° C.

[9] = biological target: T7, membrane-bound full-length human CD89; assay: FACS, HEK293F-huCD89, 4C +NaN3, IgA then Ab 10 ug/mL; pre-bound non-aggr serum IgA
Description: After this (ie, without washing), 50 μL purified mouse anti-human CD89 antibody at 20 μg/mL (in PBS/BSA/NaN₃) was added to these cells, and incubated for another 30 minutes at 4° C. […] After extensive washing in PBS/BSA/NaN₃, 1:200 diluted PE-conjugated streptavidin (Jackson ImmunoResearch) was added, and incubated for 30 minutes at 4° C. After extensive washing in PBS/BSA/NaN₃, cells were fixed in 2% formaldehyde in PBS/BSA/NaN₃ for 30 minutes at 4° C.

[10] = biological target: T7, membrane-bound full-length human CD89; assay: FACS, HEK293F-huCD89, unlabeled Ab 10 ug/mL first; competitor A59-PE
Description: as §2

[11] = biological target: T7, membrane-bound full-length human CD89; assay: FACS, HEK293F-huCD89, 4C +NaN3, Ab 10 ug/mL then IgA; competitor heat-aggr serum IgA
Description: To mimic human IgA immune complexes, human (serum-derived) IgA (Bethyl Laboratories) was heated at 63° C. for 30 minutes, and cooled down to RT followed by centrifugation at 4° C. 12000×g for 2 minutes to remove any insoluble protein precipitation.
Then, 10 μL/tube (ie, 0.1×10⁶ cells) of these cells were incubated with or without 50 μL purified mouse anti-human CD89 antibody at 20 μg/mL (in PBS/BSA/NaN₃) for 30 minutes at 4° C.

[12] = biological target: T7, membrane-bound full-length human CD89; assay: FACS, HEK293F-huCD89, 24 h 37C no NaN3, IgA then Ab 10 ug/mL; pre-bound non-aggr serum IgA
Description: as §1

[13] = biological target: T3, chimeric human/cynomolgus monkey CD89-IV; assay: FACS, transiently transfected HEK293F, 10 ug/mL; ++ strong, + intermediate, -/+ weak
Description: as §3

[14] = biological target: T4, chimeric human/cynomolgus monkey CD89-I; assay: as above
Description: as §3

[15] = biological target: T5, chimeric human/cynomolgus monkey …; assay: as above
Description: as §3

[16] = biological target: T6, chimeric human/cynomolgus monkey …; assay: as above
Description: as §3

[17] = biological target: T7, membrane-bound full-length human CD89; assay: FACS, HEK293F-huCD89, 24 h 37C no NaN3, IgA then Ab 10 ug/mL; pre-bound heat-aggr serum IgA
Description: as §1

[18] = biological target: T7, membrane-bound full-length human CD89; assay: FACS, HEK293F-huCD89, 24 h 37C no NaN3, Ab 10 ug/mL then IgA; competitor heat-aggr serum IgA
Description: as §1

[19] = biological target: T7, membrane-bound full-length human CD89; assay: FACS, HEK293F-huCD89, 4C +NaN3, IgA then Ab 10 ug/mL; pre-bound heat-aggr serum IgA
Description: as §1

[20] = biological target: T6, chimeric human/cynomolgus monkey …; assay: FACS, transiently transfected HEK293F; - = no binding
Description: as §3

[21] = biological target: T1, chimeric human/cynomolgus monkey CD89-II; assay: FACS, transiently transfected HEK293F, 10 ug/mL; ++ strong, + intermediate, -/+ weak
Description: as §3

Binder	EC50 [2]	percent IgA binding [3]	% blocking of A3-PE binding [4]	% blocking of MIP8a-PE binding [5]	EC50 [7]	binding result [8]	% blocking of A59-PE binding [10]	percent IgA binding [11]	binding result [13]	binding result [14]	binding result [15]	percent IgA binding (remaining) [17]	percent IgA binding (remaining) [18]	other results
B1	0.484 µg/mL	0 to 25%	< 25%	> 90%	0.029 µg/mL	no binding (tested: 10 µg/mL)	< 25%	0 to 25%	binds	binds	binds	0 to 25%	0 to 25%	percent IgA binding (remaining) [1]: 0 to 25%; binding result [6]: no binding (tested: 10 µg/mL); percent IgA binding [9]: 26 to 50%; percent IgA binding (remaining) [12]: 0 to 25%; binding result [16]: binds
B2	1.62 µg/mL	0 to 25%	< 25%	< 25%	0.119 µg/mL	no binding (tested: 10 µg/mL)	< 25%	0 to 25%	binds	binds	binds	76 to 125%	76 to 125%	percent IgA binding [19]: 76 to 125%; binding result [20]: no binding (tested: 10 µg/mL); binding result [21]: binds
